According to US8394929B2, “Nogo receptor-mediated blockade of axonal growth” (Yale University, priority 2000, dated 2013):

Columns and labels:
[1] = test system: GST-Nogo-induced growth cone collapse; test: Blockade of Nogo-induced growth cone collapse in chick DRG cultures; format: cell-based; conditions: GST-Nogo / Nogo-66 as collapsing agent
Method: (§1) For all experiments involving cell culture, the following methods were employed. The culture of embryonic chick E10 and E12 dorsal root ganglion explants and dissociated neurons utilized methods described for E7 dorsal root ganglion cultures (Takahashi et al., (1998) Nature Neurosci. 1, 487-493; Takahashi et al., (1999) Cell 99, 59-69; Goshima et al., (1995) Nature 376, 509-514; Jin & Strittmatter, (1997) J. Neurosci. […]). NGF-differentiated PC12 cells were cultured as described (Strittmatter et al., (1994) J. Neurosci. 14, 2327-2338). Embryonic spinal cord explants (rat E10 or chick E5) were cultured for 7-14 days in the presence of PDGF-AA to induce differentiation of some cells into mature oligodendrocytes (Vartanian et al., (1999) Proc. Natl. Acad. Sci. USA 96, 731-735). The procedure for growth cone collapse assays is identical to that for analysis of Sema3A-induced growth cone collapse (Takahashi et al., (1998) Nature Neurosci. 1, 487-493; Takahashi et al., (1999) Cell 99, 59-69; Goshima et al., (1995) Nature 376, 509-514; Jin & Strittmatter, (1997) J. Neurosci. 17, 6256-6263). The method for analysis of total neurite outgrowth has also been described (Goshima et al., (1995) Nature 376, 509-514; Jin & Strittmatter, (1997) J. Neurosci. 17, 6256-6263; Strittmatter et al., (1994) J. Neurosci. 14, 2327-2338). In outgrowth assays, proteins and peptides were added one hour after plating to minimize any effect on the total number of adherent cells. To test the effect of substrate-bound GST or GST-Nogo, the protein solutions were dried on poly-L-lysine coated glass, washed and then coated with laminin. For E12 cultures, the neuronal identity of cells was verified by staining with anti-neurofilament antibodies (2H3, Develomental Studies Hybridoma Bank) and neurites were traced by observation of rhodamine-phalloidin staining of F-actin in processes.
In the growth cone collapse assay, the response to Nogo was measured in the presence of various potential antagonistic peptides. […] This blockade supports the hypothesis that Nogo is a primary inhibitory component of CNS myelin.
For further testing, a synthetic peptide containing amino acid residues #1055-1094 of hNgR, acetylated at the […] was used [hereinafter “Peptide 140”]. […] Antagonist of Nogo-66 inhibitory activity may act by competing for, and thereby blocking NgR binding sites. To determine the antagonistic activity of Peptide 140, the above synthetic form of the peptide was added to E12 chick DRG explant cultures approximately 10 min before application of various concentrations of GST-NogoA (residues #1055-1120), TPA or Sema3A. 30 min later, cultures were fixed and growth cone collapse was assessed following staining with rhodamine-phalloidin.

mouse NgR = biological target: T1, mouse NgR (Mus musculus, UniProt Q99PI8); test: AP-fusion protein binding to COS-7 cells expressing mouse NgR
T1 construct: expressed in transfected cells; host or cells: COS-7
T1 sequence (Q99PI8 27-473): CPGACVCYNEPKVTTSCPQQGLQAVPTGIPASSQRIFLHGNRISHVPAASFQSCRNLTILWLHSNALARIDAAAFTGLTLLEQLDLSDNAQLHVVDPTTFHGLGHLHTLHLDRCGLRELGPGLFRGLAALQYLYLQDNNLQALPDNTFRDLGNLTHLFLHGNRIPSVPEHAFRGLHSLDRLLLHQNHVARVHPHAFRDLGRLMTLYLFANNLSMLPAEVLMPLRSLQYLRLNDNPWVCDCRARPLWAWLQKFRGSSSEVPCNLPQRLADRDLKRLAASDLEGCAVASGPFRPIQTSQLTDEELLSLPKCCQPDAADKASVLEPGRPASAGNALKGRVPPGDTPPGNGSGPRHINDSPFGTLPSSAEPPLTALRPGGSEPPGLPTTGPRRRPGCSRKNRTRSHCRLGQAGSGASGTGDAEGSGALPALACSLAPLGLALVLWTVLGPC
Method: To determine if AP-fused deletion mutants of Nogo-66 bind mouse NgR (“mNgR”), COS-7 cells were transfected with a plasmid encoding the mouse NgR sequence ligated into pcDNA3.1. 48 hours after transfection, cells were washed with HBH (Hanks balanced salt solution containing 20 mM sodium Hepes, pH 7.05, and 1 mg ml^−1 bovine serum albumin) and then incubated with condition medium containing one of the AP-fusion proteins described above for 2 hours at 37° C. Cells were then washed, fixed, and left in HBH at 67° C. for 14-16 h to inactivate endogenous AP. AP-fusion protein binding to NgR expressing COS-7 cells was detected with the substrates NBT and BCIP (FIG. 13b).
To determine whether mNgR or mNgR deletion mutants bound to hNogo-A (1055-1120), wtNgR or mNgR deletion mutants were transfected into COS-7 cells. Forty-eight hours after the transfection, the transfected COS-7 cells were washed with hanks balanced salt solution containing 20 mM sodium HEPES, pH 7.05, and 1 mg/ml bovine serum albumin (BSA) [hereinafter “HBH”]. Cells were then incubated for 2 hours at 23° C. with a conditioned medium enriched with purified AP-hNogo-A (1055-1120) diluted in HBH. AP-fusion protein was detected as previously described for AP-Sema3A (Takahashi et al., Nature Neurosci. 1:487-493, 1998).

[2] = test system: GST-Nogo-66 inhibition of neurite outgrowth; test: Blockade of Nogo-induced inhibition of neurite outgrowth in chick DRG neurons; format: cell-based
Method: as §1
Peptide 140 was tested for its ability to neutralize neurite outgrowth inhibition caused by the addition of GST fused to residues #1055-1120 of hNogoA (designated Nogo-66 in FIG. 16e). Plastic chamber slides were coated with 100 μg ml^−1 poly-L-lysine, washed, and dried. 3 μl drops of PBS containing GST-hNogoA(residues #1055-1120) were spotted and dried. Slides were then rinsed and coated with 10 μg ml fs24^−1 laminin before addition of dissociated E12 chick DRGs. Peptide 140 was added at the time of cell plating. Cultures were grown for 5-7 h after which neurite outgrowth was assessed.
Although the role of the GPI anchor may be to regulate NgR cellular compartmentalization, another possible role for the GPI linkage is to provide a NgR cleavage site. Cleaving NgR could serve to affect hNogo-A (1055-1120) signaling by rendering a neuron insensitive to hNogo-A (1055-1120) and by releasing soluble NgR that could then act on adjacent cells to modulate hNogo-A (1055-1120) signaling. To determine if soluble mNgR modulates hNogo-A (1055-1120)-dependent inhibition, a soluble mNgR was generated by inserting a truncated cDNA encoding mNgR residues 1-348 in frame with a myc-His carboxy tag into pcDNA3.1. The resulting plasmid expressing mNgREcto was transfected into HEK293T cells, and conditioned media containing mNgREcto protein was collected. To test the effect of mNgREcto on Nogo signaling, E13 dissociated DRGs were plated in the presence of hNogo-A (1055-1120) or myelin. The inhibitors were presented in either soluble or substrate-bound forms. For neurite outgrowth assays on hNogo-A (1055-1120) or myelin substrates, Permanox chamber slides were coated with 100μ, fs24 g ml^−1 poly-L-Lysine, washed, and then 3-μl drops of phosphate-buffered saline (hereinafter “PBS”) containing 0, 10, 50, or 150 ng of GST-hNogo-A (1055-1120) or myelin were spotted and dried. GST-hNogo-A (1055-1120) and myelin were prepared as previously described (GrandPre et al., supra; Fournier et al., J. Cell Biol. 149:411-421, 2000). After three PBS washes, slides were coated with 10 μg ml^−1 laminin. […]

[3] = test system: CNS myelin induced neurite outgrowth inhibition; test: Blockade of CNS myelin induced neurite outgrowth inhibition in chick DRG neurons; format: cell-based
Method: To determine the antagonistic activity of Peptide 140 against CNS myelin, the above synthetic peptide was added approximately 10 min before application of CNS myelin. 30 min later, cultures were fixed and growth cone collapse was assessed following staining with rhodamine-phalloidin. For neurite outgrowth assays, plastic chamber slide were coated with 100 μg ml^−1 poly-L-lysine, washed, and dried. 3 μl drops of PBS containing CNS myelin were spotted and dried. Slides were then rinsed and coated with 10 μg ml fs24^−1 laminin before addition of dissociated E12 chick DRGs. Peptide 140, or the scrambled version of Peptide 140, was added at the time of cell plating. Cultures were grown for 5-7 h after which neurite outgrowth was assessed.
Although the role of the GPI anchor may be to regulate NgR cellular compartmentalization, another possible role for the GPI linkage is to provide a NgR cleavage site. Cleaving NgR could serve to affect hNogo-A (1055-1120) signaling by rendering a neuron insensitive to hNogo-A (1055-1120) and by releasing soluble NgR that could then act on adjacent cells to modulate hNogo-A (1055-1120) signaling. To determine if soluble mNgR modulates hNogo-A (1055-1120)-dependent inhibition, a soluble mNgR was generated by inserting a truncated cDNA encoding mNgR residues 1-348 in frame with a myc-His carboxy tag into pcDNA3.1. The resulting plasmid expressing mNgREcto was transfected into HEK293T cells, and conditioned media containing mNgREcto protein was collected. To test the effect of mNgREcto on Nogo signaling, E13 dissociated DRGs were plated in the presence of hNogo-A (1055-1120) or myelin. The inhibitors were presented in either soluble or substrate-bound forms. For neurite outgrowth assays on hNogo-A (1055-1120) or myelin substrates, Permanox chamber slides were coated with 100μ, fs24 g ml^−1 poly-L-Lysine, washed, and then 3-μl drops of phosphate-buffered saline (hereinafter “PBS”) containing 0, 10, 50, or 150 ng of GST-hNogo-A (1055-1120) or myelin were spotted and dried. GST-hNogo-A (1055-1120) and myelin were prepared as previously described (GrandPre et al., supra; Fournier et al., J. Cell Biol. 149:411-421, 2000). After three PBS washes, slides were coated with 10 μg ml^−1 laminin. Laminin was then aspirated and dissociated E13 chick DRG neurons were added. After 6-8 hr of outgrowth, cultures were fixed and neurite outgrowth lengths were assessed. For blockade experiments with NgREcto, spots were incubated with HEK293T cell conditioned media or NgREcto-transfected-HEK293T cell conditioned media following for 1 hr following the laminin coating step and before the addition of dissociated neurons. […] Thus, soluble fragments of NgR might serve physiologically or pharmacologically to reduce GST-hNogo-A (1055-1120) inhibition of axonal regeneration.

binding to NgR expressing COS-7 cells (in words) (mouse NgR)	Substance	blockade of Nogo-induced growth cone collapse (in words) [1]	also measured
–	1-25: 25 amino acid peptide, residues 1-25 of the extracellular domain of Nogo (FRIYKGVIQAIQKSDEGHPFRAYLE) [Peptide 1-25]	blocking activity at μM concentrations	–
almost no binding	1-30: peptides having residues 1-30 of hNogoA (#1055-1120) (RIYKGVIQAIQKSDEGHPFRAYLESEVAIS; UniProt Q9NQC3 1055-1084, looked up, fragment) [Peptide 1-30]	–	–
almost no binding	1-31: peptides having residues 1-31 of hNogoA (#1055-1120) (RIYKGVIQAIQKSDEGHPFRAYLESEVAISE; UniProt Q9NQC3 1055-1085, looked up, fragment) [Peptide 1-31]	–	–
–	1-33: peptides having residues 1-33 of hNogoA (#1055-1120) (RIYKGVIQAIQKSDEGHPFRAYLESEVAISEEL; UniProt Q9NQC3 1055-1087, looked up, fragment) [Peptide 1-33]	–	binding to mNgR, less compared to the strong binders (mouse NgR; data not shown): approximately 50%
bind strongly and almost equivalently	1-34: peptides having residues 1-34 of hNogoA (#1055-1120) (RIYKGVIQAIQKSDEGHPFRAYLESEVAISEELV; UniProt Q9NQC3 1055-1088, looked up, fragment) [Peptide 1-34]	–	–
bound mNgR well	2-40: peptides having residues 2-40 of the hNogoA (#1055-1120) (IYKGVIQAIQKSDEGHPFRAYLESEVAISEELVQKYSNS; UniProt Q9NQC3 1056-1094, looked up, fragment) [Peptide 2-40]	–	–
no binding	10-40: peptides having residues 10-40 of hNogoA (#1055-1120) (IQKSDEGHPFRAYLESEVAISEELVQKYSNS) [Peptide 10-40]	–	–
–	11-35: 25 amino acid peptide, residues 11-35 of the extracellular domain of Nogo (IQKSDEGHPFRAYLESEVAISEELV) [Peptide 11-35]	blocking activity at μM concentrations	–
–	21-45: 25 amino acid peptide, residues 21-45 of the extracellular domain of Nogo (RAYLESEVAISEELVQKYSNSALGH) [Peptide 21-45]	blocking activity at μM concentrations	–
–	acetyl-SYVKEYAPIFAGKSRGEIKYQSIEIHEAQVRSDELVQSLN-amide (Ac-SYVKEYAPIFAGKSRGEIKYQSIEIHEAQVRSDELVQSLN-NH2) [scrambled version of Peptide 140, reference compound]	–	blockade of Nogo-induced neurite outgrowth inhibition (in words) [2]: does not result in blockade of outgrowth inhibition; blockade of CNS myelin induced neurite outgrowth inhibition (in words) [3]: ineffective
